Here are results for 28 sequences from the supplement of paper PMC9170038.

This series deals with MS2 coat protein. The series can be described thus: apparent KD of MS2 coat protein; designed switch direction (-1 OFF switch, 1 ON switch): 1; higher = weaker reporter binding. Put shortly:
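Normalised cluster fluorescence was curve-fitted, and each design's median over clusters is its apparent KD. Before this, SNAP-549-labelled MS2 coat protein was titrated from 0.7 or 1.5 nM, doubling to 3 µM, over RNA switches transcribed on Illumina chips by stalled E. coli RNA polymerase. Titrations had no input, 200 uM small-molecule ligand, or an oligonucleotide input, and steps lasted 0.8–1.5 h (lowest) to 10–20 min (highest).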

The mark [1] stands for this setting: input ligand: microRNA oligo, concentration not stated.
Setting [2] is: Eterna round: R95, input ligand: microRNA oligo, concentration not stated.
The mark [3] stands for this setting: Eterna round: R95, input ligand: FMN 200 uM.
The mark [4] stands for this setting: Eterna round: R95, input ligand: none.

In the case of “AAAGACAUGAGGAUCACCCAUGUACAGACAAACCAGUCUGCACAGGAUAUCCCGAGGAUAACUCGGGAGAAGGGUGGCCAAAAC [Onveenes] (Eterna round: R96, puzzle: Same State NG 3)”, the “apparent KD of MS2 coat protein” value was found to be 0.0748 µM (input ligand: FMN 200 uM), 0.0189 µM under setting [1] and 0.0335 µM (input ligand: none).
Take “AAAGCACAUGAGGAUCACCCAUGUGGAAAUAACACAGGAUAUCUGGCCUAAGCUUAGGCGAGAGAAGGGUGACCUA [Beintivequ] (puzzle: Same State 1)”: under setting [2], the “apparent KD of MS2 coat protein” value worked out at 0.0655 µM.
Take “AAAGGAUGAUUAUACAUGAGGAUCACCCAUGUAAGUAAUACUAAGGAUAUGUGACUUAAUUGUUUACAGAAGGUAGGUUCAUGA [AK SSNG3-V2-1.1] (Eterna round: R96, puzzle: Same State NG 3)”: the “apparent KD of MS2 coat protein” value by setting is: (input ligand: FMN 200 uM) 0.0588 µM; under setting [1], 0.23 µM; (input ligand: none) 0.117 µM.
On to “AAAGUACAUGAGGAUCACCCAUGUAAAAGACUCACAGGAUAUGCUUCUUGUGUACAAGCUGCAGAAGGGUGAAAAG [Oraes] (puzzle: Same State 1)”, for which the “apparent KD of MS2 coat protein” value is, setting by setting: under setting [3], 0.0308 µM; under setting [2], 0.0559 µM; under setting [4], 0.107 µM.
On to “AAAUCAAGUAAAACAUGAGGAUCACCCAUGUGAGAAGCUUCCAAGGAUAUGGUAUGCAUGGAAACCCAGAAGGUGGUCAAAGCA [Eternabot solution 29] (Eterna round: R96, puzzle: Same State NG 3)”, for which the “apparent KD of MS2 coat protein” value stood at 0.247 µM (input ligand: FMN 200 uM), 0.181 µM under setting [1] and 0.272 µM (input ligand: none).
Take “AACAAUCUAUCUGAGGAUAUCAUGAAAUAAACAUGAGGAUCACCCAUGUGCAGGAAUACUGCAUAUGAGAAGGCAGAUAGAUUGA [salish99_ss2_r3_042] (puzzle: Same State 2)”: the “apparent KD of MS2 coat protein” value was 0.086 µM under setting [3], 1.04 µM under setting [2] and 4.05 µM under setting [4].
Take “AACAAUCUAUCUGAGGAUAUCAUGAUAAUAACAUGAGGAUCACCCAUGUGCAGGAAAACUGCAUAUGAGAAGGCAGAUAGAUUGG [Mat - Same State 2 - Mod - D20] (puzzle: Same State 2)”: the “apparent KD of MS2 coat protein” value worked out at 0.1 µM under setting [3], 0.0294 µM under setting [2] and 0.0265 µM under setting [4].
Take “AACAAUCUAUUUGAGGAUAUCAUGAAAUAAACAUGAGGAUCACCCAUGUGCAGGAAAACUGCAUAUGAGAAGGCAGAUAGAUUGA [salish99_ss2_r3_025] (puzzle: Same State 2)”: the “apparent KD of MS2 coat protein” value by setting is: under setting [3], 0.0254 µM; under setting [2], 0.0302 µM; under setting [4], 0.0241 µM.
Take “AACCCACAUGAGGAUCACCCAUGUGUCUGAGGCACAGGAUAUCGACAGGCAAGACACCUGCGAGAAGGGUGACCUC [Same State 1 - Mod of Vinnie Diatater v.1] (puzzle: Same State 1)”: the “apparent KD of MS2 coat protein” value reads like this: under setting [3], 0.0184 µM; under setting [2], 0.00817 µM; under setting [4], 0.0279 µM.
Regarding “AAGAAACAUGAGGAUCACCCAUGUAGAAAUAUGGGAGGAUAUACGAAGACGAAAGUCAAAGUAGAAGGCCUAAAAG [Mat - Same State 1 - Eli mod - D107] (Eterna round: R96, puzzle: Same State 1)”, the “apparent KD of MS2 coat protein” value reads like this: (input ligand: FMN 200 uM) 0.0234 µM; under setting [1], 0.054 µM; (input ligand: none) 0.11 µM.
For the sequence “AAGAAACAUGAGGAUCACCCAUGUCGAAAUAACACAGGAUAUCGCACGACUACGGUGCGGCGAGAAGGGUGAGGAA [Estere] (puzzle: Same State 1)”, the “apparent KD of MS2 coat protein” value under setting [3] amounted to 0.0547 µM, the “apparent KD of MS2 coat protein” value under setting [2] stood at 0.0784 µM and the “apparent KD of MS2 coat protein” value under setting [4] is 0.0947 µM.
For “AAGAGGUCCGCAGGAUAUACCCGGGCUCGCCGGGUAGAAGGGUGAACCUCAUAACCCACCACACACAUGAGGAUCACCCAUGUA [Tedile] (Eterna round: R96, puzzle: Same State NG 1)”, the “apparent KD of MS2 coat protein” value reads like this: (input ligand: FMN 200 uM) 0.113 µM; under setting [1], 0.219 µM; (input ligand: none) 0.00457 µM.
With “AAUAAACAUGAGGAUCACCCAUGUAGUGCUUUAGCAGGAUAUGUGAGGAUCAAAUCCAUGGCAGAAGGGUUAUGGC [Inondiorbi] (puzzle: Same State 1)”, the “apparent KD of MS2 coat protein” value runs as follows: under setting [3], 0.0201 µM; under setting [2], 0.043 µM; under setting [4], 0.0671 µM.
Consider “AAUAUUAAUGCAGGAUAUGAUUAACAUGAGGAUCACCCAUGUGGUGUUGUGAGUAAGGAGAGUGAUCAGAAGGGCAUUUUUUUU [JMF's solution 36] (Eterna round: R96, puzzle: Same State NG 2)”, for which the “apparent KD of MS2 coat protein” value stood at 0.648 µM (input ligand: FMN 200 uM), 0.349 µM under setting [1] and 0.529 µM (input ligand: none).
As for “AAUUAAGAUCUAGGAUAUCACGUCGUUUAGACGUGAGAAGGAGAUCAUAACAUGAGGAUCACCCAUGUAUUACAUGAAUUAAUU [SSNG1/6-B3] (Eterna round: R96, puzzle: Same State NG 1)”, the “apparent KD of MS2 coat protein” value stood at 0.0242 µM (input ligand: FMN 200 uM), 0.0229 µM under setting [1] and 0.0285 µM (input ligand: none).
For the sequence “AAUUAAUUAAUUAAGUACAUGAGGAUCACCCAUGUAAGUGAUCAGGAUAUCAGCUCGAAUAGAGCUGAGAAGGGAUCCAUGUAC [SSNG3/15-A1] (Eterna round: R96, puzzle: Same State NG 3)”, the “apparent KD of MS2 coat protein” value is, setting by setting: (input ligand: FMN 200 uM) 0.332 µM; under setting [1], 0.322 µM; (input ligand: none) 0.375 µM.
Turning to “AAUUAUUCACAUGAGGAUCACCCAUGUGAUAUUAUUAUUACAAGCUUUUUGCUCGUCUUGUUCCUCAGUGAAUAAUU [Default title] (puzzle: Sensor for hsa-mir-208a version 2)”, the “apparent KD of MS2 coat protein” value stood at 0.0183 µM under setting [3], 0.0745 µM under setting [2] and 0.0159 µM under setting [4].
On to “AAUUAUUGACAUGAGGAUCACCCAUGUAAAGCAUGGAUUAACAAGCUACAAGCUUUUUGCUCGUCUUAUCCUAUAGG [Improved Bojan's design] (puzzle: Sensor for hsa-mir-208a version 2)”, for which the “apparent KD of MS2 coat protein” value was 0.0559 µM under setting [3], 0.0346 µM under setting [2] and 0.0581 µM under setting [4].
For “ACAAGACAUGAGGAUCACCCAUGUCCCAAUGACACAGGAUAUCGGUAGGCAUAGCCUACGCGAGAAGGGUGACUUC [Same State 1 - Mod of Vinnie Gere v.1] (puzzle: Same State 1)” the same measures were 0.198 µM, 0.0683 µM and 0.073 µM.
As for “ACAAGCUUUUCUGCAUCGAAAGGUUGAUAACAUGAGGAUCACCCAUGUAAAUAUGAAAACGAUGCUCCUCGUCUUAU [JR_SHM208A_Sub095] (puzzle: Sensor for hsa-mir-208a)”, the “apparent KD of MS2 coat protein” value runs as follows: under setting [3], 0.0373 µM; under setting [2], 0.0151 µM; under setting [4], 0.0447 µM.
For the sequence “ACAAGCUUUUUGCUCAUCUUAUGUCCGAAACAUGAGGAUCACCCAUGUGUAGAUUAUGUGUUGUUUUUGAUACGAGA [JR_SHM208A_Sub065] (puzzle: Sensor for hsa-mir-208a)”, the “apparent KD of MS2 coat protein” value reads like this: under setting [3], 0.0681 µM; under setting [2], 0.0284 µM; under setting [4], 0.0803 µM.
“ACACCACAUGAGGAUCACCCAUGUGUCAAUAACACAGGAUAUCACCCGGAAUACACCGGGUGAGAAGGGUGACCGA [Gesois] (puzzle: Same State 1)”: the “apparent KD of MS2 coat protein” value reads like this: under setting [3], 0.158 µM; under setting [2], 0.0301 µM; under setting [4], 0.0254 µM.
“ACAGAGGGAAGACAGGAUAUUCGCGAUGGCACAUGAGGAUCACCCAUGUUUUGAGCACAUAAACAGAAGAAGGGUUAAAACUCAG [Veceanve] (puzzle: Same State 2)”: the “apparent KD of MS2 coat protein” value reads like this: under setting [3], 0.0214 µM; under setting [2], 0.132 µM; under setting [4], 0.215 µM.
For the sequence “ACAUGAGAAGGAGGAUAUUUUGUACCUACAUGUGACAUGAGGAUCACCCAUGUGGUAAGUAUGAGAAAGAAGGCCUAGAUAUGU [Equivalence 15 - Jieux - Same State NG 2] (Eterna round: R96, puzzle: Same State NG 2)”, the “apparent KD of MS2 coat protein” value (input ligand: FMN 200 uM) amounted to 0.0213 µM, the “apparent KD of MS2 coat protein” value under setting [1] was found to be 0.021 µM and the “apparent KD of MS2 coat protein” value (input ligand: none) was 0.0363 µM.
The matching figures for “ACAUGAGACACAGGAUAUCAUGUACCUACAUGUGACAUGAGGAUCACCCAUGUGGUAAGUAUGACUGAGAAGGGUGAGAUAUGU [Equivalance 89 - Jieux - Same State NG 2] (Eterna round: R96, puzzle: Same State NG 2)”: 0.369 µM, 0.394 µM and 0.962 µM.
In the case of “ACAUGAGACCAAGGAUAUGUUGUACCUACAUGUGACAUGAGGAUCACCCAUGUGGUAAGUAUGAGACAGAAGGUGGAGAUAUGU [Equivalence 27 - Jieux - Same State NG 2] (Eterna round: R96, puzzle: Same State NG 2)”, the “apparent KD of MS2 coat protein” value came to 0.0169 µM (input ligand: FMN 200 uM), 0.0443 µM under setting [1] and 0.0332 µM (input ligand: none).
On to “ACAUGAGAGAAAGGAUAUCUUGUACCUACAUGUGACAUGAGGAUCACCCAUGUGGUAAGUAUGACAGAGAAGGUUCAGAUAUGU [Equivalance 71 - Jieux - Same State NG 2] (Eterna round: R96, puzzle: Same State NG 2)”, for which the “apparent KD of MS2 coat protein” value runs as follows: (input ligand: FMN 200 uM) 0.0387 µM; under setting [1], 0.0611 µM; (input ligand: none) 0.0863 µM.
Consider “ACAUGAGGAUCACCCAUGUAUUUAUUUGAAUCUUAAGUUACGUAGGAUAUCGUGUAUACUAUCAUCGAGAAGGACGAUGUGAUA [JR_SSNG3_Sub068] (Eterna round: R96, puzzle: Same State NG 3)”, for which the “apparent KD of MS2 coat protein” value under setting [1] turned out to be 0.0125 µM.
